Molecular target: JNKK (UniProt P45985)
Test: cell-based or functional assay

Chain of JNKK (P45985 whole entry): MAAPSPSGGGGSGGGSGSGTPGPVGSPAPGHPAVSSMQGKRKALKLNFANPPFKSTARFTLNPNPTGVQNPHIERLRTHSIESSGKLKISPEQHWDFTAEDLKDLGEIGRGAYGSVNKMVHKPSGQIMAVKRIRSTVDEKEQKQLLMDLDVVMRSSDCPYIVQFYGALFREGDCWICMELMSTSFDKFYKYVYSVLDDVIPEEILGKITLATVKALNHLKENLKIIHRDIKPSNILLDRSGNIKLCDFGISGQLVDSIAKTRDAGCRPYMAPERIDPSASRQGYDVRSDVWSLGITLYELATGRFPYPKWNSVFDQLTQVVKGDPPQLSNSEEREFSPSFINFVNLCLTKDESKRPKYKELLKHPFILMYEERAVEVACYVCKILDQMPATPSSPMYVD

JNKK activation in COS cells cotransfected with MEKK expression vector (immune complex kinase assay with GST-JNK2) (ng expression vector): 125
Substance: MEKK (enzyme)

Source: patent US20040235112A1
